In US20100022454A1 (Novo Nordisk, published 2010):
Positions count from the first letter of the chain named. In names and notes the source's numbering stands.

B1: PRL G129R (ligand)
chain: LPICPGGAARCQVTLRDLFDRAVVLSHYIHNLSSEMFSEFDKRYTHGRGFITKAINSCHTSSLATPEDKEQAQQMNQKDFLSLIVSILRSWNEPLYHLVTEVRGMQEAPEAILSKAVEIEEQTKRLLERMELIVSQVHPETKENEIYPVWSGLPSLQMADEESRLSAYYNLLHCLRRDSHKIDNYLKLLKCRIIHNNNC
B2: PRL S61A G129R (ligand)
chain: B1 chain with S61A
B3: human prolactin (PRL), wildtype (ligand)
chain: B1 chain with R129G

Experiments:
[1] = biological target: prolactin receptor (PRLR) on T47D cells; test: cell-based or functional assay
[2] = biological target: T1, hPRLR on stably transfected BaF/3 cells (human, UniProt P16471 25-622); test: cell-based or functional assay
T1 sequence (looked up): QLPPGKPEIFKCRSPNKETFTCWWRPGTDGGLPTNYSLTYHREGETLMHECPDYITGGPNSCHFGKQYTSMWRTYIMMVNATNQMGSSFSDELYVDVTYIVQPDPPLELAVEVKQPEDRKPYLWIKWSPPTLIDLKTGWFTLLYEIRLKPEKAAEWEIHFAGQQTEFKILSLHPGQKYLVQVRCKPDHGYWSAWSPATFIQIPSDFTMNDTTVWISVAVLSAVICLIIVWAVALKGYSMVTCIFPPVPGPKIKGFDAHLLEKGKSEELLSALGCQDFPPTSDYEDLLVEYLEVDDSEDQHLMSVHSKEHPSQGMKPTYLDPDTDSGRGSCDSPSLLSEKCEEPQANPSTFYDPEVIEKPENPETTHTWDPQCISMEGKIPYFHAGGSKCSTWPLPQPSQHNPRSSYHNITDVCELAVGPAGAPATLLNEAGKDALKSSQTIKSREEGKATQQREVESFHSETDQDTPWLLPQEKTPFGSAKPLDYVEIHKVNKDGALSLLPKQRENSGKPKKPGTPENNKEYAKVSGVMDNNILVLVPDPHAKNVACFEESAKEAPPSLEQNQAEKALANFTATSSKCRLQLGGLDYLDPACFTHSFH

| Binder | Apparent IC50 (nM) at 20 nM PRL; inhibition of PRL induced STAT3 phosphorylation, phospho-STAT3 ELISA on T47D cells [1] [nM] | EC50 (nM) of PRL in the presence of 1 µM PRL S61A G129R, BaF3 proliferation assay (AlamarBlue), n = 9 [2] [nM] | EC50 (nM), BaF3 proliferation assay (AlamarBlue), n = 31 [2] [nM] |
| --- | --- | --- | --- |
| B1 | 69 | – | – |
| B2 | 18 | – | – |
| B3 | – | 40 | 0.15 |
